{"source": "patent US20260176659A1", "about": "“IMPROVED METHOD FOR THE PRODUCTION OF NATURAL VANILLIN” (BASE SE, priority 2022, published 2026)", "molecules": {"B1": {"name": "CO-25: cleavage oxygenase from Novosphingobium aromaticivorans (Uniprot: Q2GA76), SEQ ID NO: 134 (protein)", "chain": "MAQFPNTPSFTGFNTPSRIEADIADLAHEGTIPQGLNGAFYRVQPDPQFPPRLDDDIAFNGDGMITRFHIHDGQVDFRQRWAKTDKWKLENAAGKALFGAYRNPLTDDEAVKGEIRSTANTNAFVFGGKLWAMKEDSPALVMDPATMETFGFEKFGGKMTGQTFTAHPKVDPKTGNMVAIGYAASGLCTDDVTYMEVSPEGELVREVWFKVPYYCMMHDFGITEDYLVLHIVPSIGSWERLEQGKPHFGFDTTMPVHLGIIPRRDGVRQEDIRWFTRDNCFASHVLNAWQEGTKIHFVTCEAKNNMFPFFPDVHGAPFNGMEAMSHPTDWVVDMASNGEDFAGIVKLSDTAAEFPRIDDRFTGQKTRHGWFLEMDMKRPVELRGGSAGGLLMNCLFHKDFETGREQHWWCGPVSSLQEPCFVPRAKDAPEGDGWIVQVCNRLEEQRSDLLIFDALDIEKGPVATVNIPIRLRFGLHGNWANADEIGLAEKVLAA", "modifications": "Novosphingobium aromaticivorans"}}, "type_in_all_cases": "biochemical", "key": {"[1]": {"assay": "Bioconversion of eugenol to vanillin: one-pot concurrent cascade EUGO + alkene cleavage oxygenase (5 mM scale)", "conditions": "5 mM eugenol; for Intermediate and product distribution at 24 hours 2a [%] / Intermediate and product distribution at 24 hours 3a [%] / Intermediate and product distribution at 24 hours 5a [%] / 2a / 3a / 5a / Conv. [%] ((3a mM)/5*100): EUGO 0.5 mg CFE, CO-25 3 mg CFE, catalase 5 mg; for 2a / 3a / 5a / Conv. [%] ((3a mM)/5*100): 24 hours", "in_short": "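Cell-free extracts of EUGO (0.5 mg) and cleavage oxygenase (3 mg) were combined with catalase, 1 mM FeSO4 and 1 mM ascorbate in glycine-NaOH pH 9.0 (or Tris-HCl pH 8.0). The cascade ran with 5 mM eugenol (5% ethanol/DMSO cosolvent) at 30° C and 120 rpm overnight. Methanol-quenched samples were analysed by HPLC at 280/340 nm.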"}, "[2]": {"assay": "Conversion of 50 mM coniferyl alcohol to vanillin by CO-25", "conditions": "for Intermediate and product distribution at 24 hours 2a [%] / Intermediate and product distribution at 24 hours 3a [%] / Intermediate and product distribution at 24 hours 5a [%] / 2a / 3a / 5a / Conv. [%]: CO-25 3 mg CFE, catalase 4 mg, 0.4 mL, 50 mM coniferyl alcohol 2a; for 2a / 3a / 5a / Conv. [%]: 24 hours", "procedure": "In each well of a deep-well-plate sealed with a gas permeable tape we mixed CO-25 (3 mg CFE) and catalase (4 mg) with coniferyl alcohol 2a (3.6 mg, 0.02 mL from 1M stock, final conc.: 50 mM) to a final volume of 0.4 mL. After one day incubation shaking at 290 rpm we obtained 40-46% conversion of coniferyl alcohol 2a to vanillin 3a (Table 10)."}, "[3]": {"assay": "Subsequent screening of alkene cleavage oxygenases: activity with coniferyl alcohol", "procedure": "Therefore, 50 mL TB-Kan medium in a 250 mL shake flask were inoculated with an overnight preculture of E. coi BL21 (DE3) carrying a pET-28a plasmid encoding CO-25 in the expression cassette. At OD600 ˜0.8-1, the expression was induced with 0.1 mM IPTG and the culture incubated at 25° C. for 20 hours. 0.5 mM FeSO4*7H2O was added together with the inducer. Then, the cells were disrupted by sonication in Glycine-NaOH 50 mM pH 9.0 containing 1 mM FeSO4*7H2O and 1 mM sodium ascorbate. After centrifugation, the cell free extract was lyophilized and stored at −20° C. From 50 mL cell culture we obtained 235 mg of freeze-dried cell free extract."}}, "note": "Where “and” joins values, the source holds several entries; their conditions need not be identical. Equal entries are not always repeated.", "data": [{"molecule": "B1", "values": [{"measurement": "Intermediate and product distribution at 24 hours 2a [%]", "setting": "[1]; pH 8", "value": "16.4% and 17.1%"}, {"measurement": "Intermediate and product distribution at 24 hours 3a [%]", "setting": "[1]; pH 8", "value": "83.1% and 82.4%"}, {"measurement": "Intermediate and product distribution at 24 hours 5a [%]", "setting": "[1]; pH 8", "value": 0.5, "unit": "%"}, {"measurement": "2a", "setting": "[1]; pH 8", "value": "4.18 mM and 4.39 mM"}, {"measurement": "3a", "setting": "[1]; pH 8", "value": "4.18 mM and 4.39 mM"}, {"measurement": "5a", "setting": "[1]; pH 8", "value": 0.03, "unit": "mM"}, {"measurement": "Conv. [%] ((3a mM)/5*100)", "setting": "[1]; pH 8", "value": "83.5% and 87.7%"}, {"measurement": "Intermediate and product distribution at 24 hours 2a [%]", "setting": "[1]; pH 9", "value": "12.8% and 11.6%"}, {"measurement": "Intermediate and product distribution at 24 hours 3a [%]", "setting": "[1]; pH 9", "value": "86.3% and 87.5%"}, {"measurement": "Intermediate and product distribution at 24 hours 5a [%]", "setting": "[1]; pH 9", "value": 0.9, "unit": "%"}, {"measurement": "2a", "setting": "[1]; pH 9", "value": "4.31 mM and 4.21 mM"}, {"measurement": "3a", "setting": "[1]; pH 9", "value": "4.31 mM and 4.21 mM"}, {"measurement": "5a", "setting": "[1]; pH 9", "value": "0.05 mM and 0.04 mM"}, {"measurement": "Conv. [%] ((3a mM)/5*100)", "setting": "[1]; pH 9", "value": "86.2% and 84.2%"}, {"measurement": "conversion to vanillin 3a", "setting": "[1]; EUGO and CO-25, 0.5 mL scale, pH 8 and 9", "value": "83-88%"}, {"measurement": "Intermediate and product distribution at 24 hours 2a [%]", "setting": "[2]; pH 8", "value": 47.7, "unit": "%"}, {"measurement": "Intermediate and product distribution at 24 hours 3a [%]", "setting": "[2]; pH 8", "value": 51.1, "unit": "%"}, {"measurement": "Intermediate and product distribution at 24 hours 5a [%]", "setting": "[2]; pH 8", "value": 1.1, "unit": "%"}, {"measurement": "2a", "setting": "[2]; pH 8", "value": 21.48, "unit": "mM"}, {"measurement": "3a", "setting": "[2]; pH 8", "value": 23.01, "unit": "mM"}, {"measurement": "5a", "setting": "[2]; pH 8", "value": 0.52, "unit": "mM"}, {"measurement": "Conv. [%]", "setting": "[2]; pH 8", "value": 46.0, "unit": "%"}, {"measurement": "Intermediate and product distribution at 24 hours 2a [%]", "setting": "[2]; pH 9", "value": 52.5, "unit": "%"}, {"measurement": "Intermediate and product distribution at 24 hours 3a [%]", "setting": "[2]; pH 9", "value": 45.7, "unit": "%"}, {"measurement": "Intermediate and product distribution at 24 hours 5a [%]", "setting": "[2]; pH 9", "value": 1.9, "unit": "%"}, {"measurement": "2a", "setting": "[2]; pH 9", "value": 22.87, "unit": "mM"}, {"measurement": "3a", "setting": "[2]; pH 9", "value": 19.92, "unit": "mM"}, {"measurement": "5a", "setting": "[2]; pH 9", "value": 0.81, "unit": "mM"}, {"measurement": "Conv. [%]", "setting": "[2]; pH 9", "value": 39.8, "unit": "%"}, {"measurement": "conversion of coniferyl alcohol 2a to vanillin 3a", "setting": "[2]; CO-25, 50 mM 2a, one day incubation", "value": "40-46%"}, {"measurement": "activity with coniferyl alcohol in comparison to NOV1 mutant S283F", "setting": "[3]", "value": "significant higher activity"}]}]}
